Ends that are not written are not given here. Me3 = trimethyl-lysine; Me2 = dimethyl-lysine
T1: MLL4 PHD1–3 (residues 156–341) (UniProt O14686 156-341)
T1 construct: MLL4 (KMT2D, ALR), PHD fingers 1–3, residues 156–341; Detected on the array with anti-6xHis-HRP; The purification of the PHD constructs is not described separately; also called MLL4 PHD1–3 cassette; KMT2D PHD1–3; source: bacterially expressed recombinant
T1 sequence (looked up): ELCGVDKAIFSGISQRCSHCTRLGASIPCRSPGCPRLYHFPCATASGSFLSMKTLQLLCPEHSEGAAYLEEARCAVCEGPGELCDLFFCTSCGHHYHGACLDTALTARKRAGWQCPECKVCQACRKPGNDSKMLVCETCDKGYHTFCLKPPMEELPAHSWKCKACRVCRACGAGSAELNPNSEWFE


Experiments:
Assay in all cases: peptide or protein array; SPOT peptides on cellulose membrane; 1 μM 6xHis-tagged MLL4 PHD cassette in TBS-T overnight at 4 °C; probed with anti-6xHis-HRP, chemiluminescence; signals relative to the H4K20me0 peptide (100%), spots of at least 50% taken as candidate binders
Details in all cases: both partners purified
[1] = molecular target: T1, MLL4 PHD1–3 (residues 156–341)
[2] = molecular target: T2, MLL4 PHD4–6 (residues 1358–1572) (UniProt O14686 1358-1572)
T2 construct: MLL4 (KMT2D, ALR), PHD fingers 4–6, residues 1358–1572; Detected on the array with anti-6xHis-HRP; The purification of the PHD constructs is not described separately; also called MLL4 PHD4–6 cassette; KMT2D PHD4–6; source: bacterially expressed recombinant

[3] = molecular target: T3, MLL4 PHD7 (residues 5079–5152) (UniProt O14686 5079-5152)
T3 construct: MLL4 (KMT2D, ALR), PHD finger 7, residues 5079–5152; Detected on the array with anti-6xHis-HRP; The purification of the PHD constructs is not described separately; also called KMT2D PHD7; source: bacterially expressed recombinant
T3 sequence (O14686 5079-5152): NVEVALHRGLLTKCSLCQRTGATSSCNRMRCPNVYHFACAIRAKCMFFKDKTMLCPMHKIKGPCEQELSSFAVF

T2 sequence (O14686 1358-1572): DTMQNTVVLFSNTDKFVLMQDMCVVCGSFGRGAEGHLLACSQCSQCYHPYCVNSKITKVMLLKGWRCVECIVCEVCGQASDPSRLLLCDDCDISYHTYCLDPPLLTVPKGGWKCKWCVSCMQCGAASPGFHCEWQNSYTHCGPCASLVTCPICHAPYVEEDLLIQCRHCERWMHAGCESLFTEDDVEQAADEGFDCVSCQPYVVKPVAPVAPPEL

Binder	binding result [1]	binding result [2]	binding result [3]
VKVKHVKRREKKSEKKKEERY (peptide, UniProt Q9P0U4 325-345, looked up, CFP1 (CXXC finger protein 1), human, peptide centred on K335 with 10 flanking residues on each side; held on the cellulose membrane of the array; also called unmethylated K335; source: synthetic peptide, SPOT synthesis on cellulose membrane) [CFP1 K335me0 peptide]	binds	binds	binds
RKRAVKVKHVK(Me)RREKKSEKKK (peptide, UniProt Q9P0U4 321-341, looked up, CFP1 (CXXC finger protein 1), human, peptide centred on K331 with 10 flanking residues on each side; held on the cellulose membrane of the array; also called K331 Kme1; source: synthetic peptide, SPOT synthesis on cellulose membrane) [CFP1 K331me1 peptide]	binds	–	–
VKVKHVKRREK(Me)KSEKKKEERY (peptide, UniProt Q9P0U4 325-345, looked up, CFP1 (CXXC finger protein 1), human, peptide centred on K335 with 10 flanking residues on each side; held on the cellulose membrane of the array; source: synthetic peptide, SPOT synthesis on cellulose membrane) [CFP1 K335me1 peptide]	binds	binds	–
KEERYKRHRQK(Me2)QKHKDKWKHP (peptide, UniProt Q9P0U4 341-361, looked up, CFP1 (CXXC finger protein 1), human, peptide centred on K351 with 10 flanking residues on each side; held on the cellulose membrane of the array; source: synthetic peptide, SPOT synthesis on cellulose membrane) [CFP1 K351me2 peptide]	–	binds	–
HVKRREKKSEK(Me)KKEERYKRHR (peptide, UniProt Q9P0U4 329-349, looked up, CFP1 (CXXC finger protein 1), human, peptide centred on K339 with 10 flanking residues on each side; held on the cellulose membrane of the array; source: synthetic peptide, SPOT synthesis on cellulose membrane) [CFP1 K339me1 peptide]	binds	–	–

Second part, the binder after the results:

binding result [1]	binding result [2]	binding result [3]	Binder
–	binds	–	VKRREKKSEKK(Me3)KEERYKRHRQ (peptide, UniProt Q9P0U4 330-350, looked up, CFP1 (CXXC finger protein 1), human, peptide centred on K340 with 10 flanking residues on each side; held on the cellulose membrane of the array; source: synthetic peptide, SPOT synthesis on cellulose membrane) [CFP1 K340me3 peptide]
binds	binds	–	VKVKHVKRREK(Me3)KSEKKKEERY (peptide, UniProt Q9P0U4 325-345, looked up, CFP1 (CXXC finger protein 1), human, peptide centred on K335 with 10 flanking residues on each side; held on the cellulose membrane of the array; source: synthetic peptide, SPOT synthesis on cellulose membrane) [CFP1 K335me3 peptide]
binds	binds	–	VKVKHVKRREK(Me2)KSEKKKEERY (peptide, UniProt Q9P0U4 325-345, looked up, CFP1 (CXXC finger protein 1), human, peptide centred on K335 with 10 flanking residues on each side; held on the cellulose membrane of the array; source: synthetic peptide, SPOT synthesis on cellulose membrane) [CFP1 K335me2 peptide]
